The values that follow come from publication PMC4157330, “Molecular assembly of the period-cryptochrome circadian transcriptional repressor complex” (eLife, 2014).

Assay [1] addresses T1, mouse CRY2 (amino acids 1–512) (mouse, UniProt Q9R194 1-512).
T1 construct: Cryptochrome 2 (CRY2), mouse, residues 1-512, photolyase-homology region (PHR); also called CRY2-PHR; mCRY2
T1 sequence (looked up): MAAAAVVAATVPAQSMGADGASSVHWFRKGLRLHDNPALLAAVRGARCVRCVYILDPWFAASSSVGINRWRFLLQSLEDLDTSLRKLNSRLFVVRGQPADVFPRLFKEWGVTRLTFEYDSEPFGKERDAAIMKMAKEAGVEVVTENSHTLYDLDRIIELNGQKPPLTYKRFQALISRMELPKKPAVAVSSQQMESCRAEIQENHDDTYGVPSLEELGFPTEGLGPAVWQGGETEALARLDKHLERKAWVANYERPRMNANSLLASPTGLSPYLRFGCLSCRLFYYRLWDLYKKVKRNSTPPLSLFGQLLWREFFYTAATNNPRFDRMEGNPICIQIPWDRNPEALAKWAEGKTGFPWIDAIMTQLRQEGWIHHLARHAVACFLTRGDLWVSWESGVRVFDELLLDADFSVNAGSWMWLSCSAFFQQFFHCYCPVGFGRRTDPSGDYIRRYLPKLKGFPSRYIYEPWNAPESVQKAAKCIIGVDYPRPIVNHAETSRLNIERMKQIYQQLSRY
In words: crystal structure; complex of purified CRY2 (1–512) and PER2 (1095–1215); crystals grown at 4°C, hanging drop, 100 mM HEPES pH 7.5, 200 mM NaCl, 15% PEG 3350; 2.8 Å. To be noted: both partners purified.

Assay [2] deals with T1, mouse CRY2 (amino acids 1–512). The assay is described as follows: pull-down; GST-PER2 immobilised on glutathione beads, CRY2-PHR incubated at 4°C for 1 hr; SDS-PAGE, Coomassie stain. To be noted: both partners purified.

B1: murine PER2 (amino acids 1095–1215) (domain or fragment, mouse, UniProt O54943 1095-1215, looked up)
chain: SSDTSHTSKYFGSIDSSENNHKAKMIPDTEESEQFIKYVLQDPIWLLMANTDDSIMMTYQLPSRDLQAVLKEDQEKLKLLQRSQPRFTEGQRRELREVHPWVHTGGLPTAIDVTGCVYCES
notes: also called PER2-CBD
Regarding B1, the binding result in assay [1] was “binds”.

B2: GST-tagged mPER2 WT (amino acids 1095–1215) (domain or fragment, mouse, UniProt O54943 1095-1215, looked up)
chain: B1 chain
notes: also called WT PER2-CBD; GST-PER2; source: E. coli, purified
Regarding B2, the binding result in assay [2] is listed as “binds”.
